From patent US7842293B2, “Compositions and methods using anti-CS1 antibodies to treat multiple myeloma” (Facet Biotech Corporation, priority 2006, dated 2010)

B1: HuLuc63: humanized recombinant monoclonal IgG1 antibody directed to human CS1; heavy chain variable region SEQ ID NO: 5, light chain variable region SEQ ID NO: 6 (antibody, listed as Homo sapiens, V domains shown)
VH: EVQLVESGGGLVQPGGSLRLSCAASGFDFSRYWMSWVRQAPGKGLEWIGEINPDSSTINYAPSLKDKFIISRDNAKNSLYLQMNSLRAEDTAVYYCARPDGNYWYFDVWGQGTLVTVSS
VL: DIQMTQSPSSLSASVGDRVTITCKASQDVGIAVAWYQQKPGKVPKLLIYWASTRHTGVPDRFSGSGSGTDFTLTISSLQPEDVATYYCQQYSSYPYTFGQGTKVEIK

Key:
[1] = system: CS1; experiment: CS1 protein expression on L363 multiple myeloma cell line (flow cytometry); assay type: cell-based
Protocol: The effect of HuLuc63 and Thal treatment on the expression of CS1 in MM cell lines and mouse xenograft tumors was examined by flow cytometry and immunohistochemistry respectively, as described above.
(§1) CS1 protein expression was examined on the L363 multiple myeloma cell line. […] The combination of HuLuc63 with Thal was tested for anti-myeloma activity in vivo. L363 tumor-bearing mice were treated with HuLuc63, or isotype control antibody twice weekly for three weeks at 10 mg/kg. Thal was given 5 days a week at 50 mg/kg for a maximum of 15 doses to mice receiving either isotype control antibody or HuLuc63.

[2] = system: L363 cells; experiment: In vivo mouse multiple myeloma xenograft model, L363 tumors; details: L363 tumor-bearing mice, HuLuc63 10 mg/kg twice weekly for three weeks
Protocol: (§2) Six- to eight-week old female IcrTac:ICR-Prkdcscid mice obtained from Taconic Farms (Germantown, N.Y.) were inoculated with 1×10^7 OPM2 or L363 cells (German Collection of Microorganisms and Cell Cultures, Braunschweig, Germany) into the lower right flank. Caliper measurements were performed twice weekly to calculate tumor volume using the following formula: L×W×H/2, where L (length) is the longest side of the tumor in the plane of the animal's back, W (width) is the longest measurement perpendicular to the length and in the same plane and H (height) is taken at the highest point perpendicular to the back of the animal. When tumors reached an average size of about 100 mm^3, animals were randomized into 3 groups of 8-10 mice each and were treated with 1 or 10 mg/kg of HuLuc63 or isotype control antibody administered intraperitoneally twice a week for a maximum of 6 doses.
(§3) Tumor growth was monitored for a period of 1-2 months. Animal work was carried out under NIH guidelines (“Guide for the Care and Use of Laboratory Animals”) using protocols approved by IACUC at PDL BioPharma.
as §1
L363 tumor-bearing mice were treated with HuLuc63, or isotype control antibody twice weekly for three weeks at 10 mg/kg. Thal was given 5 days a week at 50 mg/kg for a maximum of 15 doses and Dex was given twice a week at 10 mg/kg for a maximum of 6 doses to mice receiving either isotype control antibody or HuLuc63.
To determine if an anti-angiogenic drug can enhance the antitumor effects of HuLuc63, a combination of HuLuc63 with Bevacizumab was tested for anti-myeloma activity in vivo, as described above. L363 tumor-bearing mice were treated with HuLuc63, or isotype control antibody twice weekly for three weeks at 10 mg/kg. Bevacizumab was given twice a week at 0.5 mg/kg for a maximum of 6 doses to mice receiving either isotype control antibody or HuLuc63.

[3] = system: CS1; experiment: CS1 protein expression on OPM2 multiple myeloma cell line (flow cytometry); assay type: cell-based
Protocol: The effect of HuLuc63 and Dex treatment on the expression of CS1 in MM cell lines and mouse xenograft tumors was examined by flow cytometry and immunohistochemistry respectively.
CS1 protein expression was examined on the OPM2 multiple myeloma cell line. […] The combination of HuLuc63 with Dex was tested for anti-myeloma activity in vivo. OPM2 tumor-bearing mice were treated with sub-optimal doses of HuLuc63 (1 mg/kg), or isotype control antibody twice weekly for three weeks. Dex was given twice a week at 10 mg/kg to mice receiving either isotype control antibody or HuLuc63.

[4] = system: OPM2 cells; experiment: In vivo mouse multiple myeloma xenograft model, OPM2 tumors; details: OPM2 tumor-bearing mice; HuLuc63 1 mg/kg (sub-optimal) twice weekly for three weeks; Dex 10 mg/kg twice a week; i.p.; FIG. 1
Protocol: as §2
Dex was administered intraperitoneally at a dose of 10 mg/kg twice a week for a maximum of 6 doses.
as §3
CS1 protein expression was examined on the OPM2 multiple myeloma cell line. […] The combination of HuLuc63 with Dex was tested for anti-myeloma activity in vivo. […]

[5] = system: myeloma cells; details: from U.S. Patent Publication No. 2005/0025763; cited from earlier work
[6] = system: myeloma tumor; details: myeloma mouse tumor model; from U.S. Patent Publication No. 2005/0025763; cited from earlier work
[7] = Thal 50 mg/kg 5 days a week, max 15 doses, FIG. 2
[8] = Bevacizumab 0.5 mg/kg twice a week, max 6 doses, FIG. 4

| Molecule | change in CS1 expression pre- or post-treatment [1] | anti-tumor activity [2, 7] | anti-tumor activity [2, 8] | change in CS1 expression pre- or post-treatment [3] | anti-tumor activity [4] | anti-tumor activity ([2]; Thal 50 mg/kg 5 days a week, Dex 10 mg/kg twice a week, FIG. 3) | lysis of myeloma cells via ADCC [5] | reduction of tumor mass [6] |
| --- | --- | --- | --- | --- | --- | --- | --- | --- |
| O=C1CCC(N2C(=O)c3ccccc3C2=O)C(=O)N1 (centres unmarked) [Thal, Thalidomide, reference compound] | No significant change in CS1 expression | Significant anti-tumor activity |  |  |  |  |  |  |
| Bevacizumab: monoclonal antibody that targets the endothelial growth factor VEGF [reference compound] |  |  | did not exhibit significant anti-tumor activity |  |  |  |  |  |
| B1 | No significant change in CS1 expression | Significant anti-tumor activity | Significant anti-tumor activity | No significant change in CS1 expression | significant anti-tumor activity | significant anti-tumor activity | effectively mediates lysis of myeloma cells | more than 50% |
